What follows are sequences tested on Escherichia coli TOP10 (assay: shrunken log2 fold change of peptide-encoding DNA abundance (4.5 h post-induction vs induction); higher = less antimicrobial activity (less host growth inhibition)). Conditions: time post-induction: 4.5 h; library: site-saturation at positions 5, 18, 19, 20.
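Also: peptides expressed intracellularly from a pBAD plasmid library in pooled LB shake-flask culture, induced with 0.3% L-arabinose, DNA abundance read by NGS, three biological replicates, DESeq2 with apeglm shrinkage.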

Sequence | shrunken log2 fold change
RRIRDRPPRLPRPRPRPICCPRP | 0.037
RRIRWRPPRLPRPRPRPCQCPRP | -0.000687
RRIRNRPPRLPRPRPRPYAYPRP | -0.533
RRIRARPPRLPRPRPRPALLPRP | 0.718
RRIRLRPPRLPRPRPRPAAWPRP | 0.32
RRIRERPPRLPRPRPRPIWLPRP | -0.0129
RRIRMRPPRLPRPRPRPQMWPRP | 0.635
RRIRCRPPRLPRPRPRPFCCPRP | -0.175
RRIRCRPPRLPRPRPRPMARPRP | 0.352
RRIRVRPPRLPRPRPRPTYTPRP | -0.172
RRIRLRPPRLPRPRPRPDWMPRP | -0.152
RRIRPRPPRLPRPRPRPAFCPRP | 0.104
RRIRFRPPRLPRPRPRPVMWPRP | 0.0942
RRIRMRPPRLPRPRPRPQLHPRP | 0.546
RRIRERPPRLPRPRPRPGNMPRP | -0.0808
RRIRKRPPRLPRPRPRPFHAPRP | -0.179
RRIRQRPPRLPRPRPRPFHDPRP | -0.336
RRIRCRPPRLPRPRPRPSMQPRP | -0.328
RRIRFRPPRLPRPRPRPHQLPRP | -0.374
RRIRFRPPRLPRPRPRPWPPPRP | 1.11
RRIRMRPPRLPRPRPRPHPVPRP | 0.0384
RRIRRRPPRLPRPRPRPKGNPRP | 0.0579
RRIRIRPPRLPRPRPRPTGDPRP | 0.109
RRIRPRPPRLPRPRPRPQTDPRP | -0.0886
RRIRNRPPRLPRPRPRPQMMPRP | -0.227

Sequence | shrunken log2 fold change
RRIRPRPPRLPRPRPRPRVKPRP | -0.0194
RRIRQRPPRLPRPRPRPQTIPRP | -0.16
RRIRARPPRLPRPRPRPPNAPRP | 0.825
RRIRERPPRLPRPRPRPRKNPRP | -0.0182
RRIRTRPPRLPRPRPRPKHSPRP | -0.416
RRIRSRPPRLPRPRPRPYSRPRP | -0.00979
RRIRIRPPRLPRPRPRPFEMPRP | -0.22
RRIRIRPPRLPRPRPRPQMNPRP | -0.887
RRIRDRPPRLPRPRPRPKVNPRP | -0.287
RRIRPRPPRLPRPRPRPQTLPRP | 0.000929
RRIRMRPPRLPRPRPRPLDQPRP | 1.12
RRIRWRPPRLPRPRPRPCNRPRP | -0.0268
RRIRLRPPRLPRPRPRPLHIPRP | -0.367
RRIRKRPPRLPRPRPRPAFCPRP | 0.422
RRIRLRPPRLPRPRPRPRVQPRP | -0.143
RRIRTRPPRLPRPRPRPCYKPRP | -0.06
RRIRSRPPRLPRPRPRPSARPRP | 0.299
RRIRCRPPRLPRPRPRPIGWPRP | -0.0817
RRIRCRPPRLPRPRPRPHEKPRP | -0.277
RRIRVRPPRLPRPRPRPHRAPRP | 0.101
RRIRFRPPRLPRPRPRPSGPPRP | 0.21
RRIRRRPPRLPRPRPRPDWFPRP | 0.276
RRIRARPPRLPRPRPRPSCPPRP | 0.131
RRIRRRPPRLPRPRPRPWDEPRP | 0.0108
RRIRQRPPRLPRPRPRPHDMPRP | -0.364

Sequence | shrunken log2 fold change
RRIRVRPPRLPRPRPRPRCLPRP | -0.16
RRIRFRPPRLPRPRPRPRTAPRP | 0.162
RRIRGRPPRLPRPRPRPNVHPRP | 0.167
RRIRIRPPRLPRPRPRPDEIPRP | 0.1
RRIRGRPPRLPRPRPRPFDQPRP | 0.2
RRIRQRPPRLPRPRPRPTCPPRP | -0.0183
RRIRSRPPRLPRPRPRPKAVPRP | 0.255
RRIRFRPPRLPRPRPRPAVRPRP | -0.0627
RRIRTRPPRLPRPRPRPIYPPRP | -0.243
RRIRLRPPRLPRPRPRPDWIPRP | -0.0697
RRIRSRPPRLPRPRPRPYVEPRP | -0.442
RRIRPRPPRLPRPRPRPRALPRP | 0.388
RRIRIRPPRLPRPRPRPPGKPRP | 0.324
RRIRGRPPRLPRPRPRPETPPRP | 3.43
RRIRQRPPRLPRPRPRPKVWPRP | 0.153
RRIRFRPPRLPRPRPRPIRKPRP | -0.0472
RRIRVRPPRLPRPRPRPVLAPRP | 0.239
RRIRRRPPRLPRPRPRPMEFPRP | 0.0274
RRIRIRPPRLPRPRPRPENFPRP | -0.0605
RRIRQRPPRLPRPRPRPSDGPRP | -0.0586
RRIRIRPPRLPRPRPRPGDEPRP | -0.0396
RRIRCRPPRLPRPRPRPNIHPRP | -0.607
RRIRGRPPRLPRPRPRPNKGPRP | -0.0466
RRIRFRPPRLPRPRPRPHTDPRP | -0.736
RRIRIRPPRLPRPRPRPYNAPRP | -0.734

Sequence | shrunken log2 fold change
RRIRMRPPRLPRPRPRPGFPPRP | 0.446
RRIRGRPPRLPRPRPRPNMQPRP | 0.492
RRIRPRPPRLPRPRPRPQSGPRP | 0.259
RRIRSRPPRLPRPRPRPRQSPRP | 0.113
RRIRSRPPRLPRPRPRPCEYPRP | 0.0232
RRIRPRPPRLPRPRPRPIVEPRP | 0.233
RRIRSRPPRLPRPRPRPFQAPRP | 0.0408
RRIRQRPPRLPRPRPRPIRIPRP | 0.0373
RRIRYRPPRLPRPRPRPMWVPRP | -0.0664
RRIRPRPPRLPRPRPRPCSTPRP | -0.173
RRIRFRPPRLPRPRPRPDTFPRP | -0.144
RRIRLRPPRLPRPRPRPIYVPRP | -0.0939
RRIRWRPPRLPRPRPRPFVAPRP | 0.292
RRIRKRPPRLPRPRPRPDHSPRP | -0.148
RRIRFRPPRLPRPRPRPFGWPRP | 0.0193
RRIRSRPPRLPRPRPRPQITPRP | -0.457
RRIRDRPPRLPRPRPRPQFQPRP | -0.145
RRIRARPPRLPRPRPRPQRCPRP | 0.256
RRIRLRPPRLPRPRPRPKAVPRP | -0.0189
RRIRKRPPRLPRPRPRPCCTPRP | -0.0454
RRIRVRPPRLPRPRPRPKASPRP | 0.0977
RRIRMRPPRLPRPRPRPNPYPRP | -0.0714
RRIRHRPPRLPRPRPRPDKKPRP | -0.0244
RRIRYRPPRLPRPRPRPRFMPRP | -0.323
RRIRERPPRLPRPRPRPNTHPRP | -0.704

Sequence | shrunken log2 fold change
RRIRNRPPRLPRPRPRPPNWPRP | 0.217
RRIRTRPPRLPRPRPRPFVCPRP | -0.374
RRIRMRPPRLPRPRPRPRSWPRP | 1.42
RRIRDRPPRLPRPRPRPSSTPRP | 0.00883
RRIRVRPPRLPRPRPRPKPCPRP | 0.205
RRIRTRPPRLPRPRPRPDRSPRP | -0.287
RRIRARPPRLPRPRPRPSWNPRP | -0.19
RRIRHRPPRLPRPRPRPKQGPRP | -0.0386
RRIRIRPPRLPRPRPRPWINPRP | -0.379
RRIRVRPPRLPRPRPRPKVMPRP | -0.12
RRIRPRPPRLPRPRPRPENKPRP | -0.232
RRIRERPPRLPRPRPRPQFYPRP | -0.452
RRIRCRPPRLPRPRPRPVVDPRP | -0.15
RRIRCRPPRLPRPRPRPVRDPRP | 0.238
RRIRGRPPRLPRPRPRPMHQPRP | 0.696
RRIRWRPPRLPRPRPRPLMAPRP | 0.247
RRIRMRPPRLPRPRPRPRFTPRP | 0.323
RRIRERPPRLPRPRPRPADIPRP | 0.033
RRIRERPPRLPRPRPRPAWHPRP | 0.324
RRIRKRPPRLPRPRPRPKSQPRP | 0.109
RRIRERPPRLPRPRPRPLISPRP | -0.0142
RRIRPRPPRLPRPRPRPTGFPRP | 0.0273
RRIRTRPPRLPRPRPRPKKIPRP | -0.437
RRIRHRPPRLPRPRPRPDMGPRP | 0.00739
RRIRHRPPRLPRPRPRPWDRPRP | -0.0232

Sequence | shrunken log2 fold change
RRIRHRPPRLPRPRPRPVNFPRP | -0.636
RRIRSRPPRLPRPRPRPIKNPRP | -0.399
RRIRWRPPRLPRPRPRPHDVPRP | 0.132
RRIRVRPPRLPRPRPRPVIHPRP | -0.968
RRIRVRPPRLPRPRPRPHEPPRP | -0.0412
RRIRDRPPRLPRPRPRPWDSPRP | -0.000687
RRIRPRPPRLPRPRPRPKFHPRP | -0.143
RRIRQRPPRLPRPRPRPDMLPRP | 0.0939
RRIRLRPPRLPRPRPRPWDCPRP | -0.0998
RRIRMRPPRLPRPRPRPDFGPRP | 0.0563
RRIRSRPPRLPRPRPRPVNEPRP | -0.0746
RRIRIRPPRLPRPRPRPIQTPRP | -0.0155
RRIRFRPPRLPRPRPRPFQHPRP | -0.209
RRIRDRPPRLPRPRPRPWGAPRP | 0.305
RRIRDRPPRLPRPRPRPGMQPRP | 0.165
RRIRYRPPRLPRPRPRPRLYPRP | -0.247
RRIRHRPPRLPRPRPRPPWFPRP | -0.27
RRIRTRPPRLPRPRPRPYPDPRP | -0.0217
RRIRRRPPRLPRPRPRPYWSPRP | -0.353
RRIRCRPPRLPRPRPRPMQNPRP | 0.311
RRIRWRPPRLPRPRPRPVSKPRP | 0.0519
RRIRTRPPRLPRPRPRPFVYPRP | -0.639
RRIRTRPPRLPRPRPRPGLNPRP | -0.213
RRIRHRPPRLPRPRPRPCFTPRP | -0.838
RRIRLRPPRLPRPRPRPVPKPRP | 0.282

From the supplement of paper PMC9112550, “Optimization of the antimicrobial peptide Bac7 by deep mutational scanning” (BMC Biology, 2022)
